Positions count from the first letter of the chain named. Values belong to the binder of their own block, whether it stands above or below them.
Molecular target: largest TIRC7 extracellular domain (T-cell immune response cDNA 7) (human) (UniProt Q13488)
Experiment: SPR, Biacore T200, 25 C, TIRC7 domain immobilized on CM5 chip, 1:1 kinetic fit

kon: 1.24e+06 M⁻¹ s⁻¹
B1: cAB1467-10.0 (antibody, V domains shown)
VH: QVQLVQSGAEVKKPGASVKVSCKASGYTFTTYVMHWVRQAPGKGLEWMGYINPYNDGTNYNEKFKGRVTLTSDKSTSTAYMELSSLRSEDTAVYYCAEFITKTVGGSNWYLDVWGQGTTVTVSS
VL: DIQLTQSPSFLSASVGDRVTITCSASSSISYIHWFQQKPGKAPKRWIYDTSKLPSGVPSRFSGSGSGTEYTLTISSLQPEDFATYYCHQRSSYTWTFGGGTKLEIK

kon: 3.56e+06 M⁻¹ s⁻¹
B2: cAB1459-10.0 (antibody, V domains shown)
VH: B1 VH with L70M, S72E, K74T, S77D
VL: B1 VL

kon: 1.13e+06 M⁻¹ s⁻¹
B3: cAB1468-10.0 (antibody, V domains shown)
VH: B1 VH
VL: EIVLTQSPATLSLSPGERATLSCSASSSISYIHWYQQKPGQAPRRLIYDTSKLPSGIPARFSGSGSGTDFTLTISSLEPEDFAVYYCHQRSSYTWTFGGGTKLEIK

Kd: 0.3 nM | koff: 0.00013 s⁻¹ | kon: 520000 M⁻¹ s⁻¹
B4: parent antibody (murine anti-TIRC7 antibody 17-20, cAb1457) (antibody, V domains shown)
VH: QVQLKQSGPELVKPGASVKMSCKASGYTFTTYVMHWVKQKPGQGLEWIGYINPYNDGTNYNEKFKGKATLTSDKSSSTAYMELSTLTSEDSAVYYCAEFITKTVGGSNWYLDVWGAGTTVTVSS
VL: DIVLTQSPAIMSASPGEKVTMTCSASSSISYIHWFQQKPGTSPKRWIYDTSKLPSGVPARFSGSGSGTSYSLTISSMEAEDAATYYCHQRSSYTWTFGGGTKLEIK
